Test results taken from article PMC11143218, “Evolved histone tail regulates 53BP1 recruitment at damaged chromatin” (Nature Communications, 2024).
Non-standard residues stand in square brackets, D forms with d. No end group written: not given here. *: point of attachment. Biotin = O=C1N[C@H]2[C@H](CS[C@H]2CCCCC(=O)*)N1; pS = N[C@@H](COP(=O)(O)O)C(=O)O

Target: T1, MBP-53BP1 IRIF formation fragment a.a. 1220–1639 (human, UniProt Q12888 1220-1639)
T1 construct: 53BP1, minimal region for IRIF formation, a.a; also called in vitro purified 53BP1 a.a; source: E. coli BL21, purified (amylose resin, maltose elution)
Assay: pull-down; in vitro: MBP-purified protein incubated with 10.5 μg biotinylated peptide and 10 μL streptavidin beads, 1 h at 4 °C; washed three times with NETN; western blot
Conditions: both partners purified

T1 sequence (Q12888 1220-1639): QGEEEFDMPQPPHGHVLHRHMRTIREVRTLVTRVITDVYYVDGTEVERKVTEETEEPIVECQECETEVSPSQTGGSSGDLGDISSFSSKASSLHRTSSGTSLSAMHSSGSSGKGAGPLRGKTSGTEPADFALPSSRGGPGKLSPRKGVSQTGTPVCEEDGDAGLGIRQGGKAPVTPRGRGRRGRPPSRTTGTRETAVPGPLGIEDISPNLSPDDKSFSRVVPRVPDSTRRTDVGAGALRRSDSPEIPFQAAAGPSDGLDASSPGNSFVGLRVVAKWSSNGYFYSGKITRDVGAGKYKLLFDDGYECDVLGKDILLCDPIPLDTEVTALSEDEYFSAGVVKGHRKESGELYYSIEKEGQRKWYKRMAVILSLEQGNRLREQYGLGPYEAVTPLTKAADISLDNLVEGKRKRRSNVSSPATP

B1: biotinylated phosphorylated S139 H2AX C-terminal tail peptide (peptide)
peptide: Biotin-TSATVGPKAPSGGKKATQA[pS]QEY
notes: also called 23-amino acid phosphorylated H2AX C-terminal tail peptide; γH2AX C-terminal tail; source: synthetic peptide, bought: genscript
  binding result: binds
